Experimental data as given in publication PMC3102117, “L,L-Diaminopimelate Aminotransferase from Chlamydomonas reinhardtii: A Target for Algaecide Development” (PLoS ONE, 2011).

Experiments:
[1] = molecular target: L,L-diaminopimelate aminotransferase from Chlamydomonas reinhardtii (Chlamydomonas reinhardtii); experiment: AUC; sedimentation velocity, 9.2 µM (0.45 mg/mL) Cr-DapL, 20 °C, 50 mM HEPES, 0.5 mM DTT, 1 mM EDTA, 50 mM NaCl pH 8.0, 45,000 rpm; c(s) and c(M) distributions in SEDFIT
[2] = substrate: N[C@@H](CCC[C@H](N)C(=O)O)C(=O)O; experiment: purified protein; type: biochemical, Chlamydomonas reinhardtii; conditions: reverse direction, amino donor, saturating 2-oxoglutarate, 0.3 mM NADPH, 50 mM NH4Cl, 100 mM HEPES-KOH pH 7.6, 30 °C
[3] = substrate: O=C(O)CCC(=O)C(=O)O; experiment: purified protein; type: biochemical, Chlamydomonas reinhardtii; conditions: reverse direction, amino acceptor, saturating L,L-DAP, 0.3 mM NADPH, 50 mM NH4Cl, 100 mM HEPES-KOH pH 7.6, 30 °C
[4] = substrate: N[C@@H](CCC(=O)O)C(=O)O; experiment: purified protein; type: biochemical, Chlamydomonas reinhardtii; conditions: forward direction, amino donor, saturating THDPA generated in situ from meso-DAP by C. glutamicum Ddh, 100 mM HEPES-KOH pH 7.6
[5] = substrate: O=C(O)C1=N[C@H](C(=O)O)CCC1; experiment: purified protein; type: biochemical, Chlamydomonas reinhardtii; conditions: forward direction, co-substrate glutamate 5.0 mM, THDPA generated in situ from meso-DAP by C. glutamicum Ddh with NADP, 100 mM HEPES-KOH pH 7.6

Molecule	stoichiometry N [1]	Km [2]	Vmax [2]	kcat [2]	Km [3]	kcat [3]	Km [4]	kcat [4]	Km [5]	Vmax [5]	kcat [5]
L,L-diaminopimelate aminotransferase from Chlamydomonas reinhardtii (enzyme)	2	–	–	–	–	–	–	–	–	–	–
Cr-DapL (Chlamydomonas reinhardtii) (protein, monomeric mass 48,830 Da; dimer; EC 2.6.1.83) MQLNVRSTASGARSSTRSRRMTAVVQAVAQRAGTIDVQRNENFGKLRAGYLFPEIARRRKAHQEKNPDAKIISLGIGDTTEPLPKYIADAMAKAAAGLATREGYSGYGAEQGQGALREAVASTFYGHAGRAADEIFISDGSKCDIARIQMMFGSKPTVAVQDPSYPVYVDTSVMMGMTGDHNGTGFDGIEYMVCNPDNHFFPDLSKAKRTDIIFFCSPNNPTGAAATRAQLTELVNFARKNGSILVYDAAYALYISNPDCPKTIYEIPGADEVAIETCSFSKYAGFTGVRLGWTVVPKALKYANGEPVHADWNRVMTTCFNGASNIVQAGGLACLQPEGLKEMNAMIKFYKENAQILKTTFTEMGFSVYGGDDAPYIWVGFPGKPSWDVFAEILERCNIVTTPGSGFGPAGEGFVRASAFGSRENILEAVRRFKEAYGKRN	–	300 ± 20 µM	11.6 µmol/min/mg	19 s⁻¹	2200 ± 700 µM	19.0 s⁻¹	900 ± 400 µM	1.1 s⁻¹	100 ± 10 µM	0.68 µmol/min/mg	1.1 s⁻¹
